Data from PMC3278277.

How the values were obtained:
Settings in all cases: glycan gained; control: wild type
[1] = HNG colorimetric assay, stable H4 lysates
[2] = GALC blot and activity in H4 conditioned medium
[3] = Uptake index: recipient lysate activity / input medium activity
[4] = Anti-V5 blot of Ni-NTA purified C-terminal fragment, COS-1

B1: galactocerebrosidase (GALC): D528N (protein)
parent chain: MLGKSHGRATHGPLPLADLGIHLPCVKVLHQVTPEEKPAATSRLLVNYPEPYRSQILDYLFKPNFGASLHILKVEIGGDGQTTDGTEPSHMHYALDENYFRGYEWWLMKEAKKRNPNITLIGLPWSFPGWLGKGFDWPYVNLQLTAYYVVTWIVGAKRYHDLDIDYIGIWNERSYNANYIKILRKMLNYQGLQRVKIIASDNLWESISASMLLDAELFKVVDVIGAHYPGTHSAKDAKLTGKKLWSSEDFSTLNSDMGAGCWGRILNQNYINGYMTSTIAWNLVASYYEQLPYGRCGLMTAQEPWSGHYVVESPVWVSAHTTQFTQPGWYYLKTVGHLEKGGSYVALTDGLGNLTIIIETMSHKHSKCIRPFLPYFNVSQQFATFVLKGSFSEIPELQVWYTKLGKTSERFLFKQLDSLWLLDSDGSFTLSLHEDELFTLTTLTTGRKGSYPLPPKSQPFPSTYKDDFNVDYPFFSEAPNFADQTGVFEYFTNIEDPGEHHFTLRQVLNQRPITWAADASNTISIIGDYNWTNLTIKCDVYIETPDTGGVFIAGRVNKGGILIRSARGIFFWIFANGSYRVTGDLAGWIIYALGRVEVTAKKWYTLTLTIKGHFTSGMLNDKSLWTDIPVNFPKNGWAAIGTHSFEFAQFDNFLVEATR
[1]
  enzymatic_activity, percent_of_wt: decreases
[2]
  expression_or_secretion: decreases
[3]
  other: cellular uptake, other: uptake index: decreases
[4]
  other: proteolytic processing: no change
